Like-named read-outs stand apart in the source and are kept apart here. Where a SMILES comes first, the peptide text is derived from it. Bridges are numbered along the chain shown (N, C = ends). Roman numbers before positions name the chains, in order. Where no end group is shown, it is not given here. [ ]: non-standard residue; d: D form. NMeW = CN[C@@H](Cc1c[nH]c2ccccc12)C(=O)O; NMeH = CN[C@@H](Cc1c[nH]cn1)C(=O)O; NMeR = CN[C@@H](CCCNC(=N)N)C(=O)O; NMeE = CN[C@@H](CCC(=O)O)C(=O)O; NMeQ = CN[C@@H](CCC(N)=O)C(=O)O; NMeD = CN[C@@H](CC(=O)O)C(=O)O; NMeN = CN[C@@H](CC(N)=O)C(=O)O; NMeL = CN[C@@H](CC(C)C)C(=O)O; NMeV = CN[C@H](C(=O)O)C(C)C; NMeC = CN[C@@H](CS)C(=O)O; βAla = NCCC(=O)O
Columns and labels:
[1] = Stability of thioether macrocyclic peptide in human serum pool (LC-MS); type: in vitro ADME; settings: for remaining at 4 h, 1 μM: Table 9; for Stability in human serum (undegraded portion/time): Table 10
Method: A DMSO solution of the thioether macrocyclic peptide to be evaluated was dissolved in a human serum pool to give a concentration of 1 μM. The human serum pool containing the thioether macrocyclic peptide thus prepared was incubated at 37° C.
After an elapse of the evaluation time, the human serum pool containing the thioether macrocyclic peptide was placed on ice and a peptide serving as an internal standard was added and mixed to give a concentration of 1 μM. The resulting mixture was added to a solid-phase extraction column (Hyper Sep SPE column, Thermo Scientific), washed with a 5% aqueous acetonitrile solution containing 0.1% TFA, and then purified by eluting with a 70% aqueous acetonitrile solution containing 0.1% TFA.
The molecular weight of the purified product was analyzed using LC-MS and the cleavage site in the serum was identified. In addition, the thioether macrocyclic peptide which had remained without being cleaved was quantitatively determined by comparing an amount relative to the internal standard at every incubation time.

c-Met-Fc = c-Met-Fc (Homo sapiens, UniProt P08581); experiment: Binding ability by surface plasmon resonance (SPR, Biacore); settings: for kon: read-out: ka
Sequence of c-Met-Fc (P08581 with tags, fused parts or gaps limits assumed): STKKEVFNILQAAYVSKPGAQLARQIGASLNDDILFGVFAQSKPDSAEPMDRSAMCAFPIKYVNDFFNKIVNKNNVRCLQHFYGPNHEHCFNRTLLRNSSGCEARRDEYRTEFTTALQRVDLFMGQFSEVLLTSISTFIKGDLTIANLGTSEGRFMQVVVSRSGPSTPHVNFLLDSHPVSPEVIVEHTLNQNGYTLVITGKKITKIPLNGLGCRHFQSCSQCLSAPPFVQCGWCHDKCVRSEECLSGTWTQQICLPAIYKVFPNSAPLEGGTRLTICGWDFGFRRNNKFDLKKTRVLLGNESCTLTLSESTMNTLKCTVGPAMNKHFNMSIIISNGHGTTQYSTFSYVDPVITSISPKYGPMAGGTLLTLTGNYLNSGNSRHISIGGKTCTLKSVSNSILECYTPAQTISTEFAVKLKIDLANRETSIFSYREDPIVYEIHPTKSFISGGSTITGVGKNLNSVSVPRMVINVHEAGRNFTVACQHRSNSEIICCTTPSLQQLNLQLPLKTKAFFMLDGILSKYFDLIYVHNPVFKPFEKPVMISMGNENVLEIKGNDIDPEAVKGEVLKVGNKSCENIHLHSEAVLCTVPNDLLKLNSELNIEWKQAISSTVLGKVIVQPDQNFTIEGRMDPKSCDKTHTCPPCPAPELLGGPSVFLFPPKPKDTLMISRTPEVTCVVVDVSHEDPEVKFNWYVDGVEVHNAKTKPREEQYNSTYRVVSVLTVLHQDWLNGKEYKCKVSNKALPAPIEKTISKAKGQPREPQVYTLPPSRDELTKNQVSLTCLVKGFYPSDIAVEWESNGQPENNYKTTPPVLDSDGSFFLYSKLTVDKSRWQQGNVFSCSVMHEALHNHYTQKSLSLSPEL
Sequence of c-Met-Fc (P08581 25-307 limits assumed): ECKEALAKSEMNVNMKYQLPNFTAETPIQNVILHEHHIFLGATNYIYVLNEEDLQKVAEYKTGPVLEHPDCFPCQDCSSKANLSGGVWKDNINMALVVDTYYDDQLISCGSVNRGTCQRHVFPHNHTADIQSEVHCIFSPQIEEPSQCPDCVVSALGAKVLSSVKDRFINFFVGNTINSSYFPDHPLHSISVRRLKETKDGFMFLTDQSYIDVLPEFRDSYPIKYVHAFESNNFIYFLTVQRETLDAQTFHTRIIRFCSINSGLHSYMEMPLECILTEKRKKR
Method: Binding ability of the thioether macrocyclic peptide was evaluated by SPR measurement using Biacore (GE Healthcare).
As a sensor chip, Sensor Chip CM5 was used and an anti-IgG antibody was immobilized on a measurement lane and a control lane by using Human Antibody Capture Kit.
On the measurement lane was immobilized c-Met-Fc, while on the control lane was immobilized Fc protein.
As a running buffer, HBS-EP+ buffer containing 0.1% DMSO was used and a dissociation constant of the thioether macrocyclic peptide was calculated at 5 different concentrations by using the single-kinetics method.

c-Met = molecular target: T1, c-Met (Homo sapiens, UniProt P08581); experiment: Activity of dimeric peptide by ELISA (c-Met phosphorylation level in EHMES-1 cells); type: cell-based; settings: for Activity (c-Met phosphorylation level by ELISA): Table 12, EHMES-1 cells, 10 minutes stimulation; for c-Met phosphorylation: Table 13
T1 construct: endogenous in cells; host or cells: EHMES-1 (human mesothelioma)
T1 sequence (P08581 25-1390): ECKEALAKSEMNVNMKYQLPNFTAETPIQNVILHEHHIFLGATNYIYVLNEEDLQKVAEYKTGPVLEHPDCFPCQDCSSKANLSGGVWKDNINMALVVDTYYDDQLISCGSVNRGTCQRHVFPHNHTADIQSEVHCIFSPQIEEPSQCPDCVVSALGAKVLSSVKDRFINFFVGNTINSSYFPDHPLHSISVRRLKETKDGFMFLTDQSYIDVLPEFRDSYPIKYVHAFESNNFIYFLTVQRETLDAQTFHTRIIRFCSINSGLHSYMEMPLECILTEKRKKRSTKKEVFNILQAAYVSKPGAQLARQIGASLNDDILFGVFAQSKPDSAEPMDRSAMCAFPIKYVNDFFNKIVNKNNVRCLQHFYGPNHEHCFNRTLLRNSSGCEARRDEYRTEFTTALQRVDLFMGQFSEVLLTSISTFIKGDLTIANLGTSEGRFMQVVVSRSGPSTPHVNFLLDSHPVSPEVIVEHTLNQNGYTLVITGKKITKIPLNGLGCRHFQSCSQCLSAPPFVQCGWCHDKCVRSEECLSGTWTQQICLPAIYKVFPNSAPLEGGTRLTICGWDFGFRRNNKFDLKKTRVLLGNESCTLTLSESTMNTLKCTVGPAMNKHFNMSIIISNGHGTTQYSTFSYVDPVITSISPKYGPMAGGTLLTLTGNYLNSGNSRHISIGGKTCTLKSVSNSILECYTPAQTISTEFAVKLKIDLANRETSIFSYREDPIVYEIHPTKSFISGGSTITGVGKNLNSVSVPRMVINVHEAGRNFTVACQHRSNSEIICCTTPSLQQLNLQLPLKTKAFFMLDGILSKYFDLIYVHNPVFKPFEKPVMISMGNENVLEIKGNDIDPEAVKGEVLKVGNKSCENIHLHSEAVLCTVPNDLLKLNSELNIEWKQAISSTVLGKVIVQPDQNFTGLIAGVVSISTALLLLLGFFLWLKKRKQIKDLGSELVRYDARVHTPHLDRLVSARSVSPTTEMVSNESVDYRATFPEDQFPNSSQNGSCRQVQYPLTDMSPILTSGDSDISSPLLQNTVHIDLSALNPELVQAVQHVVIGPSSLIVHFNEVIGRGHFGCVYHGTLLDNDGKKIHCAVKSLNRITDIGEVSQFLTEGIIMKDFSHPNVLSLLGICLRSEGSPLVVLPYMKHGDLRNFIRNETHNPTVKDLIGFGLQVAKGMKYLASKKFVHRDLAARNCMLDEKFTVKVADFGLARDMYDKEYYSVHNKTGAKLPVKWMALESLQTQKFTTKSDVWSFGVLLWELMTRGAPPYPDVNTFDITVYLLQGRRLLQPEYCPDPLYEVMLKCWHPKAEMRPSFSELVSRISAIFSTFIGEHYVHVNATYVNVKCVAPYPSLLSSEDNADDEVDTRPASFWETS
Method: Each dimeric peptide was added to human EHMES-1 cells and the mixture was incubated for 10 minutes to stimulate the cells.
As a control experiment, a recombinant human HGF protein was added and the mixture was incubated for 10 minutes to stimulate cells.
A phosphorylation level of c-Met was quantitatively analyzed using ELISA.

[2] = human serum pool, 37° C., 1 μM, 4 h
[3] = Table 11, monomer and dimeric peptides

Q: With CC(C)C[C@@H]1NC(=O)[C@H](CC(N)=O)NC(=O)[C@H](Cc2c[nH]c3ccccc23)NC(=O)[C@H](C(C)C)NC(=O)[C@H](CCC(=O)O)NC(=O)[C@H](Cc2c[nH]cn2)NC(=O)[C@H]([C@@H](C)O)NC(=O)[C@H](CCCNC(=N)N)NC(=O)[C@H](CCCNC(=N)N)N(C)C(=O)[C@H](CC(N)=O)NC(=O)[C@H](Cc2ccccc2)NC(=O)[C@H](CCC(N)=O)NC(=O)[C@H](CCCNC(=N)N)NC(=O)[C@@H](Cc2ccc(O)cc2)NC(=O)CSC[C@@H](C(=O)NCC(N)=O)N(C)C(=O)[C@H](CC(=O)O)NC1=O [Peptide D4-3NMe] ({CH2CO}-[dY]RQFN[NMeR]RTHEVWNLD[NMeC]G-NH2; thioether N-16) as the molecule, how does the remaining at 4 h, 1 μM [1, 2] read?
A: 63%

Q: And the “Stability in human serum (undegraded portion/time)” value ([1]; 4 h, 37° C.)?
A: 67%/4 h

Q: What about the “Stability in serum (in words)” value ([1]; human serum) of the same molecule?
A: considerably excellent

Q: And the Kd (c-Met-Fc; Table 9, c-Met-Fc)?
A: 5.2 nM

Q: And the kon (c-Met-Fc; Table 9, c-Met-Fc)?
A: 390000 M⁻¹ s⁻¹

Q: Which remaining at 1 h, 1 μM ([1]; Table 8, human serum pool, 37° C., 1 μM, 1 h) does the source give for CC(C)C[C@@H]1NC(=O)[C@H](CC(N)=O)NC(=O)[C@H](Cc2c[nH]c3ccccc23)NC(=O)[C@H](C(C)C)NC(=O)[C@H](CCC(=O)O)NC(=O)[C@H](Cc2c[nH]cn2)NC(=O)[C@H]([C@@H](C)O)NC(=O)[C@H](CCCNC(=N)N)NC(=O)[C@H](CCCNC(=N)N)NC(=O)[C@H](CC(N)=O)NC(=O)[C@H](Cc2ccccc2)NC(=O)[C@H](CCC(N)=O)NC(=O)[C@H](CCCNC(=N)N)NC(=O)[C@@H](Cc2ccc(O)cc2)NC(=O)CSC[C@@H](C(=O)NCC(N)=O)NC(=O)[C@H](CC(=O)O)NC1=O [Peptide D4-3] ({CH2CO}-[dY]RQFNRRTHEVWNLDCG-NH2; thioether N-16; N-terminus and C-terminus assumed) here?
A: 3.7%

Q: And the remaining at 4 h, 1 μM [1, 2]?
A: < 3.7%

Q: And the “Stability in human serum (undegraded portion/time)” value ([1]; 2 h, 37° C.)?
A: 6%/2 h

Q: What about the kon (c-Met-Fc; Table 8, c-Met-Fc) of the same molecule?
A: 1.3e+06 M⁻¹ s⁻¹

Q: And the kon (c-Met-Fc; Table 10, c-Met-Fc)?
A: 2.4e+06 M⁻¹ s⁻¹

Q: Which results are given for C[C@@H]1NC(=O)[C@H](Cc2ccc(O)cc2)NC(=O)[C@H](Cc2ccc(O)cc2)NC(=O)[C@H](Cc2c[nH]c3ccccc23)NC(=O)[C@@H](Cc2ccc(O)cc2)NC(=O)CSC[C@@H](C(=O)NCC(N)=O)NC(=O)[C@@H]2CCCN2C(=O)[C@H](Cc2ccccc2)NC(=O)[C@H](C)NC(=O)[C@H](CCCCN)NC(=O)[C@H](Cc2ccc(O)cc2)NC(=O)[C@H]([C@@H](C)O)NC(=O)[C@H](CCC(N)=O)NC(=O)[C@H](CC(=O)O)NC(=O)[C@H](Cc2c[nH]c3ccccc23)NC1=O [Peptide D5-4] ({CH2CO}-[dY]WYYAWDQTYKAFPCG-NH2; thioether N-15)?
A: Stability in human serum (undegraded portion/time) ([1]; 2 h, 37° C.): 97%/2 h; Kd (c-Met-Fc; Table 10, c-Met-Fc): 4.6 nM; kon (c-Met-Fc; Table 10, c-Met-Fc): 4.5e+06 M⁻¹ s⁻¹

Q: Which kon (c-Met-Fc; Table 8, c-Met-Fc) does the source give for CC(C)C[C@@H]1NC(=O)[C@H](CC(N)=O)NC(=O)[C@H](Cc2c[nH]c3ccccc23)NC(=O)[C@H](C(C)C)N(C)C(=O)[C@H](CCC(=O)O)NC(=O)[C@H](Cc2c[nH]cn2)NC(=O)[C@H]([C@@H](C)O)NC(=O)[C@H](CCCNC(=N)N)NC(=O)[C@H](CCCNC(=N)N)NC(=O)[C@H](CC(N)=O)NC(=O)[C@H](Cc2ccccc2)NC(=O)[C@H](CCC(N)=O)NC(=O)[C@H](CCCNC(=N)N)NC(=O)[C@@H](Cc2ccc(O)cc2)NC(=O)CSC[C@@H](C(=O)NCC(N)=O)NC(=O)[C@H](CC(=O)O)NC1=O [Peptide N11] ({CH2CO}-[dY]RQFNRRTHE[NMeV]WNLDCG-NH2; thioether N-16; C-terminus assumed) here?
A: 15000 M⁻¹ s⁻¹

Q: With CC(C)C[C@@H]1NC(=O)[C@H](CC(N)=O)NC(=O)[C@H](Cc2c[nH]c3ccccc23)N(C)C(=O)[C@H](C(C)C)NC(=O)[C@H](CCC(=O)O)NC(=O)[C@H](Cc2c[nH]cn2)NC(=O)[C@H]([C@@H](C)O)NC(=O)[C@H](CCCNC(=N)N)NC(=O)[C@H](CCCNC(=N)N)NC(=O)[C@H](CC(N)=O)NC(=O)[C@H](Cc2ccccc2)NC(=O)[C@H](CCC(N)=O)NC(=O)[C@H](CCCNC(=N)N)NC(=O)[C@@H](Cc2ccc(O)cc2)NC(=O)CSC[C@@H](C(=O)NCC(N)=O)NC(=O)[C@H](CC(=O)O)NC1=O [Peptide N12] ({CH2CO}-[dY]RQFNRRTHEV[NMeW]NLDCG-NH2; thioether N-16; C-terminus assumed) as the molecule, how does the kon (c-Met-Fc; Table 8, c-Met-Fc) read?
A: 55000 M⁻¹ s⁻¹

Q: Which kon (c-Met-Fc; Table 8, c-Met-Fc) does the source give for CC(C)C[C@@H]1NC(=O)[C@H](CC(N)=O)NC(=O)[C@H](Cc2c[nH]c3ccccc23)NC(=O)[C@H](C(C)C)NC(=O)[C@H](CCC(=O)O)NC(=O)[C@H](Cc2c[nH]cn2)NC(=O)[C@H]([C@@H](C)O)NC(=O)[C@H](CCCNC(=N)N)NC(=O)[C@H](CCCNC(=N)N)NC(=O)[C@H](CC(N)=O)NC(=O)[C@H](Cc2ccccc2)NC(=O)[C@H](CCC(N)=O)NC(=O)[C@H](CCCNC(=N)N)NC(=O)[C@@H](Cc2ccc(O)cc2)NC(=O)CSC[C@@H](C(=O)NCC(N)=O)NC(=O)[C@H](CC(=O)O)N(C)C1=O [Peptide N15] ({CH2CO}-[dY]RQFNRRTHEVWNL[NMeD]CG-NH2; thioether N-16; C-terminus assumed) here?
A: 300000 M⁻¹ s⁻¹

Q: With “D4-3 Bis-MAL-PEG3: dimeric peptide: two D4-3 macrocycles linked through C-terminal Cys by Bis-MAL-PEG3 linker ({CH2CO}-[dY]RQFNRRTHEVWNLDCGC; thioether N-16; not fully specified (residue 18); also: dimer: two copies joined by Bis-MAL-PEG3, linker at 18 via Bis-MAL-PEG3, other end not in the chain)” as the molecule, how does the ka (c-Met-Fc; [3]) read?
A: 1.1 10^6 M^−1s^−1

Q: What about the kd (c-Met-Fc; [3]) of the same molecule?
A: 0.070 10^−2 s^−1

Q: And the “Activity (c-Met phosphorylation level by ELISA)” value (c-Met)?
A: Low

Q: And the c-Met phosphorylation (c-Met)?
A: Promote

Q: Which ka (c-Met-Fc; [3]) does the source give for “D5-4 Bis-MAL-PEG3: dimeric peptide: two D5-4 macrocycles linked through C-terminal Cys by Bis-MAL-PEG3 linker (peptide 1 {CH2CO}-[dY]WYYAWDQTYKAFPCG; peptide 2 {CH2CO}-[dY]WYYAWDQTYKAFPCG; thioether I:N-I:15, II:N-II:15; not fully specified (C-terminus); also: dimer: two chains joined by Bis-MAL-PEG3 through an added C-terminal Cys not in the letters)” here?
A: 0.12 10^6 M^−1s^−1

Q: And the kd (c-Met-Fc; [3])?
A: 0.054 10^−2 s^−1

Q: And the “Activity (c-Met phosphorylation level by ELISA)” value (c-Met)?
A: High

Q: What about the c-Met phosphorylation (c-Met) of the same molecule?
A: Promote

Q: What does the source list for “L5-2 Bis-MAL-PEG11: dimeric peptide: two L5-2 macrocycles linked through C-terminal Cys by Bis-MAL-PEG11 linker ({CH2CO}-YISWNEFNSPNWRFITCG[βAla]C-NH2; thioether N-17; not fully specified (residue 20); also: dimer: two copies joined by Bis-MAL-PEG11, linker at 20 via Bis-MAL-PEG11, other end not in the chain)”?
A: ka (c-Met-Fc; [3]): 0.098 10^6 M^−1s^−1; kd (c-Met-Fc; [3]): 0.031 10^−2 s^−1; Activity (c-Met phosphorylation level by ELISA) (c-Met): Low; c-Met phosphorylation (c-Met): Promote

Q: What does the source list for “N3: N-methylated peptide of D4-3 ({CH2CO}-[dY]R[NMeQ]FNRRTHEVWNLDC-NH2; thioether N-16; also: bridge 1-16 listed as disulfide) [Peptide N3]”?
A: Kd (c-Met-Fc; Table 8, c-Met-Fc): 120 nM; ka (c-Met-Fc; Table 8, c-Met-Fc): 0.27 10^5 M^−1s^−1; kd (c-Met-Fc; Table 8, c-Met-Fc): 0.31 10^−2 s^−1

Q: With “N5: N-methylated peptide of D4-3 ({CH2CO}-[dY]RQF[NMeN]RRTHEVWNLDC-NH2; thioether N-16; also: bridge 1-16 listed as disulfide) [Peptide N5]” as the molecule, how does the Kd (c-Met-Fc; Table 8, c-Met-Fc) read?
A: 200 nM

Q: What about the ka (c-Met-Fc; Table 8, c-Met-Fc) of the same molecule?
A: 0.19 10^5 M^−1s^−1

Q: What about the kd (c-Met-Fc; Table 8, c-Met-Fc) of the same molecule?
A: 0.39 10^−2 s^−1

Q: With “N9: N-methylated peptide of D4-3 ({CH2CO}-[dY]RQFNRRT[NMeH]EVWNLDC-NH2; thioether N-16; also: bridge 1-16 listed as disulfide) [Peptide N9]” as the molecule, how does the KD (c-Met-Fc; Table 8, c-Met-Fc) read?
A: Not binding

Q: For “N10: N-methylated peptide of D4-3 ({CH2CO}-[dY]RQFNRRTH[NMeE]VWNLDC-NH2; thioether N-16; also: bridge 1-16 listed as disulfide) [Peptide N10]”, which Kd (c-Met-Fc; Table 8, c-Met-Fc) is on record?
A: 300 nM

Q: And the ka (c-Met-Fc; Table 8, c-Met-Fc)?
A: 0.25 10^5 M^−1s^−1

Q: What about the kd (c-Met-Fc; Table 8, c-Met-Fc) of the same molecule?
A: 0.75 10^−2 s^−1

Q: For “N14: N-methylated peptide of D4-3 ({CH2CO}-[dY]RQFNRRTHEVWN[NMeL]DC-NH2; thioether N-16; also: bridge 1-16 listed as disulfide) [Peptide N14]”, which Kd (c-Met-Fc; Table 8, c-Met-Fc) is on record?
A: 290 nM

Q: And the ka (c-Met-Fc; Table 8, c-Met-Fc)?
A: 0.21 10^5 M^−1s^−1

Q: What about the kd (c-Met-Fc; Table 8, c-Met-Fc) of the same molecule?
A: 0.59 10^−2 s^−1
